Test results: patent US20080260755A1

Legend:
[1] = target: activated FIX-albumin fusion protein with cleavable linker (1088/797), activated by FXIa (human) (UniProt P00740); assay: cell-based or functional assay
[2] = target: activated FIX-albumin fusion protein with non-cleavable linker (980/797), activated by FXIa (human) (UniProt P00740); assay: cell-based or functional assay
[3] = test system: FIX-albumin fusion protein with cleavable linker, construct no. 1088/797
[4] = test system: FIX-albumin fusion protein with cleavable linker, construct no. 1089/797
[5] = test system: FIX-albumin fusion protein with non-cleavable linker (1478/797)
[6] = target: FIX-albumin fusion protein with cleavable linker, construct no. 1088/797; remark: listed apart in the source
[7] = target: FIX-albumin fusion protein with cleavable linker, construct no. 1089/797; remark: listed apart in the source

## Antithrombin III (AT) (from UniProt P01008 33-464)
[1]
  clotting time (naPTT) after 120 min incubation with AT: 540 s
  clotting time (naPTT), control without incubation with AT: 210 s
  factor of increase in clotting time (naPTT) after 120 min incubation with AT: 2.57 x
[2]
  clotting time (naPTT) after 120 min incubation with AT: 411 s
  clotting time (naPTT), control without incubation with AT: 196 s

## Factor XIa (FXIa)
[3]
  proteolytic cleavage in vitro, SDS-PAGE: are activated and in parallel the linker is cleaved resulting in release of the albumin moiety
[4]
  proteolytic cleavage in vitro, SDS-PAGE: are activated and in parallel the linker is cleaved resulting in release of the albumin moiety
[5]
  proteolytic cleavage in vitro, SDS-PAGE: The fusion protein with non-cleavable linker did not show a corresponding release of the albumin moiety

B1: FVIIa (in the presence of tissue factor) (protein)
chain: ANAFLEELRPGSLERECKEEQCSFEEAREIFKDAERTKLFWISYSDGDQCASSPCQNGGSCKDQLQSYICFCLPAFEGRNCETHKDDQLICVNENGGCEQYCSDHTGTKRSCRCHEGYSLLADGVSCTPTVEYPCGKIPILEKRNASKPQGRIVGGKVCPKGECPWQVLLLVNGAQLCGGTLINTIWVVSAAHCFDKIKNWRNLIAVLGEHDLSEHDGDEQSRRVAQVIIPSTYVPGTTNHDIALLRLHQPVVLTDHVVPLCLPERTFSERTLAFVRFSLVSGWGQLLDRGATALELMVLNVPRLMTQDCLQQSRKVGDSPNITEYMFCAGYSDGSKDSCKGDSGGPHATHYRGTWYLTGIVSWGQGCATVGHFGVYTRVSQYIEWLQKLMRSEPRPGVLLRAPFP
[6]
  proteolytic cleavage in vitro in the presence of tissue factor (data not shown): also showed release of the albumin moiety in parallel to release of the FIX activation peptide
[7]
  proteolytic cleavage in vitro in the presence of tissue factor (data not shown): also showed release of the albumin moiety in parallel to release of the FIX activation peptide
